In general, Kd refers to the concentration at which binding is half-saturated.

Where “and” joins values, the source holds several entries; their conditions need not be identical. Identical values can stand only once.

Experiment [1] has as its target NOD-derived murine SIRPα (NOD allele of Sirpα) on NOD mouse macrophages (mouse (NOD strain)) (UniProt P97797). As to the kind of experiment: graded mCD47-Fc on adherent fresh macrophages, anti-human Fc-HRP colorimetric read-out.
Experiment [2] has the same target. Kind of experiment: graded hCD47-Fc on NOD macrophages, clustered (anti-SIRPα mAb pre-treatment) against unclustered.
Experiment [3] has the same target. As to the kind of experiment: graded hCD47-Fc on unmanipulated fresh NOD macrophages (unclustered), anti-human Fc-HRP colorimetric read-out.
Experiment [4] shares this target. Kind of experiment: graded hCD47-Fc on NOD macrophages pre-treated with a monoclonal antibody to the SIRPα ectodomain (clustered), anti-human Fc-HRP colorimetric read-out.

UniProt P97797, sequence (P97797 32-513): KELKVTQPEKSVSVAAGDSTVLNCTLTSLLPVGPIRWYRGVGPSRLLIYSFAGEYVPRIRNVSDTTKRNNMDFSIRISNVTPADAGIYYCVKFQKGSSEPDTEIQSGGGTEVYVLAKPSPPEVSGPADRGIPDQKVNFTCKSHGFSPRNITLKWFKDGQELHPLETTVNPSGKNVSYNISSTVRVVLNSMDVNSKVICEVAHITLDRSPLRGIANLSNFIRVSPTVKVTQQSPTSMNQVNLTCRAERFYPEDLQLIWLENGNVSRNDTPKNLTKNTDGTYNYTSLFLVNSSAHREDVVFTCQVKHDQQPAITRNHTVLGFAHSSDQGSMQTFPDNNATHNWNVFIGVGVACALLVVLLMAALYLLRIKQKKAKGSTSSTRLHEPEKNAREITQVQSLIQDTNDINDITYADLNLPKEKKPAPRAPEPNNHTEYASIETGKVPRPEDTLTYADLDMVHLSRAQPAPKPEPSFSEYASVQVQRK

“Mouse CD47-Fc (mCD47-Fc) fusion protein (from UniProt Q61735 19-133) (Fc fusion)”: the fold lower Kd than the NOR SIRPα-mCD47 interaction in experiment [1] was 4.7 fold and > 4 fold.

In the case of “human CD47 IgV domain fused to human IgG Fc (hCD47-Fc), made in 293F cells (from UniProt Q08722 19-135) (Fc fusion)”, in experiment [2], the fold rise in affinity, clustered against unclustered is greater than 10 fold. Further, the dissociation constant Kd was found to be 1.6 nM in experiment [3] and 0.16 nM in experiment [4].

These data come from patent US20100239578A1.
